Experimental data reported in the supplement of paper PMC10567573.

B1: TCAP (parent)
chain: YQRVLPLPIFTPAKMGATKEERED
B2: PDLIM4 (parent)
chain: FLDERLYCESHAKARVKPPEGYDV

Variants of: B1
Assay: protein stability index of a GFP-peptide fusion (GPS, HEK-293T) (PSI 1-6); higher = more stable
Conditions: c terminus: a fixed tail appended
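Also: lentivirally expressed fusions sorted by FACS into six bins by GFP to DsRed ratio, PSI derived from sequencing read proportions per bin multiplied by bin number.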

Protein stability index: each site, then its substitutions
A13: F 2.04, I 2.18, G 2.38, K 2.44, R 2.44, Y 1.86, M 2.31, P 3.8, D 2.95, W 2.02, C 1.72, S 2.53, L 1.76, E 2.9
Y1: S 5.4, E 5.33, V 4.33, A 5.43, R 4.53, P 5.44, D 5.35, I 3.9, T 4.79, Q 5.25, K 5.06, F 2.09, L 4.21, C 4.53
P8: E 2.46, I 2.15, R 1.88, Y 2.51, T 2.32, W 2.73, N 2.11, Q 2.12, L 1.64, F 1.45, M 2.36, D 1.57, A 1.96, K 2.18
R22: Q 1.67, N 2.51, K 2.09, H 1.95, T 1.86, P 1.87, V 2.2, I 1.93, M 1.9, G 2.47, F 1.85, D 2.18, W 1.71, C 2.04
Q2: K 4.35, W 2.59, V 1.99, T 1.89, D 3.35, L 2.58, G 1.41, Y 2.93, S 1.87, C 1.99, E 3.53, H 2.07, R 3.9, N 2.35, F 3.21, I 2.08
E21: P 2.54, T 1.92, K 2.1, H 2.22, Y 2.14, M 1.93, C 2.28, N 1.81, W 2.41, V 2.35, Q 1.98, R 1.97, L 2.06, A 1.91
L7: D 2.1, K 3.33, P 2.59, S 2.31, T 1.73, N 1.54, R 3.08, H 4.72, Q 2.56, F 1.76, W 2.86
M15: W 1.72, L 2.42, R 2.21, T 2.05, C 2.12, Q 2.26, K 2.38, G 2.31, F 2.14, E 2.64, H 2.57, I 2.1, Y 2.21
I9: V 2.88, Y 2.58, E 4.51, L 2.41, R 4.16, P 4.02, F 2.31, M 3.07, T 4.02, H 2.83, K 3.96, W 2.2, C 3.04, S 3.79, Q 3.74
A17: E 2.07, V 1.76, Y 1.89, N 2.08, Q 1.86, L 1.67, H 2.06, F 1.74, S 2.02, K 2.21, D 2.1
F10: N 4.05, P 4.14, D 4.32, E 4.33, G 4.44, Q 4.5, L 3.73, Y 2.48, K 4.08, I 3.72, C 3.63, H 3.94, T 4.04, M 3.71, V 3.65
E23: V 2.79, N 1.8, T 2.16, Y 1.93, R 1.92, I 2.3, A 2.02, S 2, L 2.22, D 2.04, F 1.64, P 1.95, C 2.19, G 2, M 1.9, W 2.53
T18: K 2.25, Y 1.7, E 3.02, D 2.25, I 1.81, R 2.4, P 1.91, H 1.95, M 1.52, Q 2.39, A 1.79, L 2.56
G16: C 2.06, H 1.34, A 1.9, S 2.16, F 2.14, Y 2.07, L 1.81, T 1.95, I 1.92, M 1.56, R 2.05, D 1.92, V 2.39
D24: E 2.21, C 1.98, A 1.82, W 2.26, V 1.87, S 1.45, G 1.84, H 1.81, R 1.55, P 1.85, Y 1.76, F 1.75, T 3.05, L 2.04, I 1.99
T11: C 1.79, A 1.87, L 2.71, R 3.21, I 2.68, P 3.31, V 2.67, N 3.49, M 2.08, Y 2.62, Q 3.44, D 3.96, S 2.36
P12: M 2.91, R 3.47, T 3.26, I 3.48, W 1.94, N 2.82, K 3.2, F 2.98, G 3.11, S 3.2
K19: G 2.42, R 2.02, Q 1.91, D 2.03, T 2.12, S 2.08, A 2.02, I 2.06, Y 2.01, F 1.93, M 2.5, L 1.8, C 1.78, W 1.81
K14: N 2.32, H 2.18, C 1.69, E 2.63, M 1.77, L 1.81, Q 2.32, Y 1.97, F 2.04, D 3.13
V4: Q 1.9, H 1.37, Y 2.26, I 2.07, T 1.88, W 2.55, S 1.72, D 1.52, M 1.53, N 1.83, L 2.18, R 1.7, E 1.93, F 2.27, G 2.82, P 2.67, C 2
E20: K 1.81, I 2.04, T 2.13, R 2.48, Q 1.73, A 1.94, P 1.92, N 1.89, G 2.23, D 2.02
P6: Y 2.35, F 2.25, T 2.05, S 1.82, D 2.62, V 2.17, N 1.35, G 1.9, E 2.22, L 1.73, I 2.19, M 1.65, R 1.66, Q 1.91
L5: W 2.81, G 2.89, E 2.42, A 2.05, F 2.52, T 1.98, D 3.06, Q 2.03, S 1.97, M 1.9, N 1.8, I 1.87
R3: A 2.15, G 3, W 2.69, N 2.46, L 1.86, C 3.12, V 2.09, H 1.88, I 1.73, Y 4.55, Q 2.78

Variants of: B2
Assay: as above
Conditions: c terminus: a fixed tail appended

Protein stability index, by site and new letter:
A12: M 1.53
A14: F 1.65
V16: M 1.53
L2: N 3.48
K17: D 1.27, P 2.25
K13: C 1.21
G21: I 2.25
R5: I 2.24
C8: S 2.39, V 2.28, G 3.41
S10: W 3.67
H11: Y 2.18
Y22: N 2.65
V24: S 2.82
